The results in this text go back to patent publication US20220267458A1 (Innovent, published 2022).

Residue numbers refer to the chain shown, from its start.

By Kd is commonly meant the constant that tells how readily two partners part at equilibrium. The low end stands for higher affinity, the high end for lower affinity. Usually koff stands for the first-order rate constant of dissociation. Higher therefore signals fast dissociation. What is called kon is the second-order rate constant of association. Lower therefore signals slow association.

The labels stand for the following.
T1: human GITR-His (human, UniProt Q9Y5U5 26-161)
T1 construct: Bought from Acro biosystems; also called GITR-His (Acro biosystems); antigen GITR-His
T1 sequence: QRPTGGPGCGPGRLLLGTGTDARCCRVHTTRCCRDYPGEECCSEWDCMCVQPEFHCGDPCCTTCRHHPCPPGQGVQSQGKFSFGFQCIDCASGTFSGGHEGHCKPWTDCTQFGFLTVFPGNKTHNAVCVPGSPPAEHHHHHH

B1: Nb-15 (VHH)
VHH: QVQLQESGGGSVQAGGSLRLSCVVFGNIFRNYCMAWFRQAPGKEREGVVVIYTGGGSTYYADSVKGRFTISQDNAKNTVYLQMNSLKHEDTAMYYCAADQTTRYSSDYVNVGPCDMDSWGKGTQVTVSS
notes: Tested as crude extract from E. coli (osmotic shock)
B2: Nb-07 (VHH)
VHH: QVQLQESGGGLVQAGGSLKLSCTVSGFAFGSSHMSWVRRAPGKGLEWVSTIHSGGGFGDYANSVQGRFTISRDVAKNTLYLQMNSLKPEDTAIYYCALATDWRKPPGQGTQVTVSS
notes: as for B1
B3: Nb-10 (VHH)
VHH: B2 VHH with A14P, K19R, T23A, V24A
notes: as for B1
B4: Nb-13 (VHH)
VHH: QVQLQESGGGSVQAGGSLRLSCTASSNTGRMGWFRQAPGKEREGVTAVDNFGRTNYAKYVKGRFTISKDNAKNTLYLQMNSLKPEDTAMYYCAADPWGRGAALTPNEYIYWGQGTQVTVSS
notes: as for B1
B5: Nb-22 (VHH)
VHH: QVQLQESGGGSVQAGGSLRLSCAASGYTFTTAYMGWFRQAPGKEREGVAAIDSDGRTEYADAVKGRFTISKDNAKNTLYLQMNSLKPEDTAMYYCAADKDDWLLLHGRSLFPSAFAYWGQGTQVTVSS
notes: as for B1
B6: Nb-03 (VHH)
VHH: QVQLQESGGGSVQAGGSLRLSCAASGYTYSGYCMGWFRQAPGKEHEGVASIVSGLGRPYYADSVKGRFTISQDNAKNTVYLQMNSLKPEDTAMYYCAAEWATKLCSEIPATEWDYWGQGTQVTVSS
notes: as for B1
B7: Nb-08 (VHH)
VHH: QVQLQESGGGSVQAGGSLRLSCAASGYTSSRKYIGWFRQAPGKQREWVAGIDTGAGGTCTIASVQGRFTISQDVAKNTLYLQIDSLKPEDTAVYYCAADWVRGGFCSGDADFRYWGQGTQVTVSS
notes: as for B1
B8: Nb-04 (VHH)
VHH: QVQLQESGGGSVQAGGSLRLSCTASGFTVDDSGMGWYRQAPGNECELVSTISSDGSTYYADSVKGRFTISQDNAKNTVYLQMNSLKPEDTAVYYCAAPRVGVGWVRPCDYEYNYWGQGTQVTVSS
notes: as for B1
B9: Nb-11 (VHH)
VHH: B8 VHH with A14T, V29F, D31A, S32A, G33D, T50I
notes: as for B1
B10: Nb-16 (VHH)
VHH: QVQLQESGGGSVQAGGSLRLSCAASGYTYNKYSWGWFRQAPGKEREGVAGIDSDGSTSYADSVKGRFTISKDNTKNTLYLQMNSLKPEDTAMYYCAASDWVSAIQALGVLAVRPYEYWGQGTQVTVSS
notes: as for B1
B11: Nb-17 (VHH)
VHH: QVQLQESGGGSAQAGGSLRLSCAASRYTSSSNAMGWFRQAPGKQREWVAGSDTGAGITCNAASVKGRFTISQDVAKNTVYLQMNSLKPEDTAVYYCAADWFRGAFCSGDADFRYWGQGTQVTVSS
notes: as for B1
B12: Nb-09 (VHH)
VHH: QVQLQESGGGLVQPGGSLRLSCGASGFTFSSTAMWWFRQAPGKGLEWVSSITSDVSGTYYADSVQGRFTISRDNGKNTVYLQMNSLRSEDTALYYCATSCGFSGGTWSCKYRGQGTQVTVSS
notes: as for B1
B13: Nb-21 (VHH)
VHH: QVQLQESGGGSVQAGGSLRLSCRTSGYTNNLKSMAWFRQAPGKEREAVASIHNNGGPTYDYYAESVKGRFAISQDNAKNTLYLQMSSAKPEDTAVYYCAADNRFLGSGSWRLPSLYNYWGQGTQVTVSS
notes: as for B1
B14: Nb-02 (VHH)
VHH: QVQLQESGGGSVQAGGSLRLSCAASRDTYTRYFMGWFRQTPGKEGEGVAVLLPGGDYTFYADSVKGRFTITQDSAKNTVYLQMNSLKPEDTAMYYCAADVTVGSRWSQASNYNYWGQGTQVTVSS
notes: as for B1
B15: Nb-12 (VHH)
VHH: B14 VHH with G45P, D56A
notes: as for B1
B16: Nb-19 (VHH)
VHH: QVQLQESGGGSVQAGGSLRLSCAASGFTYSNYCMAWFRQAPGKEREGVAAIDSDGSTSYADSVKGRFTISQDNAKNTLYLQMNSLKPEDTAMYYCAAGNKKPYQLCNTDSRRYYHWGQGTQVTVSS
notes: as for B1
B17: Nb-20 (VHH)
VHH: QVQLQESGGGSVQAGGSLRLSCASSGYSRTSRWMAWFRQAPGKEREGVAAIYTGGSSTLYANSMADRVTISQDNAKNTVYLRMNNLKPEDTAMYYCAADKLAGDFWLVDRWRAWGQGTQVTVSS
notes: as for B1
B18: Nb-06 (VHH)
VHH: QVQLQESGGGSVQAGGSLRLSCAASGYAYTRNCMGWFRQAPGKEREEVATINLGGGSTYYADSVKGRFAISQDNAKNTVYLQMNNLKPEDTAMYYCAAIAQYGGSLCSNFGWYNLWGQGTQVTVSS
notes: as for B1
B19: Nb-14 (VHH)
VHH: QVQLQEFGGGSVQAGGSLRLSCVASGFTFSNYCMGWFRQDPGKEREAVARIFVDGSTRYADAVKGRFTISKDNAKNTLYVQINSLKPEDTAMYYCTTPFPWTLCVDGPGAYKYWGQGTQVTVSS
notes: as for B1
B20: Nb-05 (VHH)
VHH: QVQLQESGGGLVQPGGSLRLSCAASGFTFSNKVMSWVRQAPGKGFEWVSSIARGGDWTTYADSVEGRFTISRDNAKNTLYLQLNSLKTEDTAMYYCAQAENWKTPPGQGTQVTVSS
notes: as for B1
B21: Nb-01 (VHH)
VHH: QVQLQESGGGLVQPGGSLRLSCTASGLTFDDYAMGWFRQAPGKGREGVSLITWSGSSTYYADSVKGRFTVSRDTATNTLVLQMNSLKPEDTAMYYCAADPRSGGYYSSPPPPAVYRYLRFWGQGTQVTVSS
notes: as for B1
B22: Nb-18 (VHH)
VHH: QVQLQESGGGSVQTGGSLRLSCAASGLTSTTKYMGWFRQAPGKEREGVAGIYISSGATYYDDSVKGRFTISQDNAKNTVYLHINSLEPDDTAMYYCAASVLSVFRPLSSNQYHYWGQGTQVTVSS
notes: as for B1
B23: hcIgG-04 (antibody, V domains shown)
VH: B8 VHH
notes: also called heavy-chain antibody of Nb-04

One test concerns the target T1, human GITR-His. Kind of test: PE-ELISA, sample OD against reference OD. As for the experimental part: (§1) (2) crude antibodies were obtained by a conventional osmotic shock method, and the crude antibodies were transferred to an enzyme-labeled plate (Nunc) coated with the antigen GITR-His overnight, and incubated at room temperature for 1 h;
Regarding B1, the “Ratio (+/-)” value is 5.04.
B2: the “Ratio (+/-)” value was determined as 32.6.
Still for that read-out and setting: to B3 belongs 29.9.
Still for that read-out and setting: to B4 belongs 3.29.
On the same count and under the same terms, as for B5, the figure is 10; as for B6, 11.7; as for B7, 23.
In the case of B8, the “Ratio (+/-)” value stood at 22.
The same measure, in the same setting: as for B9, the figure is 7.78.
On the same count and under the same terms, to B10 belongs 20.7; to B11, 15.1.
Consider B12, for which the “Ratio (+/-)” value amounted to 23.1.
The same measure, in the same setting: as for B13, the figure is 7.55; as for B14, 20.7.
Still for that read-out and setting: as for B15, the figure is 4.53.
The same measure, in the same setting: to B16 belongs 18.5; to B17, 12.2.
On to B18, for which the “Ratio (+/-)” value is 3.31.
Still for that read-out and setting: as for B19, the figure is 4; as for B20, 21.5.
In the case of B21, the “Ratio (+/-)” value was 6.23.
Same read-out and setting: to B22 belongs 9.8.

Another test addresses T1, human GITR-His. Kind of test: PE-ELISA, crude nanobody on coated GITR-His, anti-HA detection. Here is the method:
as §1
(3) unbound antibodies were washed off with PBST, then mouse anti-HA tag antibody (SinoBiological) was added, and placed at room temperature for 1 h;
A general note: In an ELISA, binding on a coated surface is turned into a signal by an enzyme label.
Take B1: the “Sample OD (+)” value was 1.25 OD (405 nm).
On the same count and under the same terms, as for B2, the figure is 2.35 OD (405 nm).
Still for that read-out and setting: as for B3, the figure is 2.27 OD (405 nm).
As to B4, the “Sample OD (+)” value was 0.263 OD (405 nm).
Still for that read-out and setting: as for B5, the figure is 0.606 OD (405 nm).
The same measure, in the same setting: as for B6, the figure is 0.786 OD (405 nm); as for B7, 1.71 OD (405 nm); as for B8, 1.63 OD (405 nm).
On the same count and under the same terms, to B9 belongs 0.552 OD (405 nm); to B10, 1.67 OD (405 nm).
On to B11, for which the “Sample OD (+)” value was 1.04 OD (405 nm).
On the same count and under the same terms, to B12 belongs 1.45 OD (405 nm); to B13, 0.522 OD (405 nm); to B14, 1.43 OD (405 nm).
The same measure, in the same setting: as for B15, the figure is 0.444 OD (405 nm); as for B16, 1.32 OD (405 nm).
The same measure, in the same setting: as for B17, the figure is 1.41 OD (405 nm); as for B18, 0.314 OD (405 nm); as for B19, 0.46 OD (405 nm).
Consider B20, for which the “Sample OD (+)” value is 1.41 OD (405 nm).
Same read-out and setting: to B21 belongs 0.467 OD (405 nm); to B22, 1.01 OD (405 nm).

In the next test the target is T1, human GITR-His. Kind of test: ForteBio BLI, antibody on AHQ tip, human GITR-His 100 nM in solution, 1:1 model. As for the experimental part:
(2) Experimental procedure: 100 μl of SD buffer and antibodies (hcIgG-02, hcIgG-03, hcIgG-04, hcIgG-07, hcIgG-09, hcIgG-10, hcIgG-16 and hcIgG-20, control antibody), GITR-His (Acro biosystems) were added to a 96-well half-volume black polystyrene microplate. The plate was arranged according to the positions of the samples, the position of the sensor was selected, and the operation procedures were set as: Baseline, Loading ˜1 nm, Baseline, Association and Dissociation, each running for a time depending on the binding and dissociation rates of the sample, at a rotation speed of 400 rpm and a temperature of 30° C.
(3) A 1:1 binding model was adopted for kinetic analysis.
In general terms: In BLI a coated tip is dipped into the sample, and binding shifts an interference pattern.
Regarding B23, the dissociation constant (Kd) is 7.92 nM, the koff was 0.00202 s⁻¹ and the association rate constant (kon) was found to be 256000 M⁻¹ s⁻¹.
